According to patent publication US20220348635A1, “COMPOSITIONS AND METHODS FOR NEUROLOGICAL DISEASES” (Coda Biotherapeutics, Inc., priority 2019, published 2022):

Experiments:
Type in all cases: cell-based
[1] = YFP quench plate reader assay, response to APN-1125; settings: LX293T YFP reporter cells; for percent quench of YFP fluorescence, 100 nM apn: 100 nM APN-1125; for percent quench of YFP fluorescence, 1 uM apn: 1 uM APN-1125; for percent quench of YFP fluorescence, 30 uM apn: 30 uM APN-1125
Description: (§1) FIGS. 1A-FIG. 1G show the heat maps of the percent quench of YFP fluorescence in the mutants of the engineered chimeric receptor SEQ ID NO:33 that comprise the indicated double amino acid substitutions following stimulation by various doses of either acetylcholine or the indicated non-native ligand. Ligand doses are written across the top of each chart. Numbers in the boxes indicate the absolute amount of quench observed. Dark blue=80% maximal quench of YFP reporter. Light blue=quench of 30-80%. White=10-30%. Orange=0-10% quench. Negative values represent non-responders that have a negative quench due to a stimulation artifact. SEQ ID NO:29 is a non-responding chimera used as a negative control. Abbreviations for non-native ligand names: abt: ABT-126; ach: acetylcholine; apn: APN-1125; azd: AZD-0328; brd: TC-5619; fac: RG3487; tc6: TC-6987.
(§2) Tables 2-8 below lists percent quench of YFP fluorescence following stimulation of the indicated engineered receptor by various doses of either acetylcholine or the non-native ligand.
(§3) To screen these mutant LGICs for those having novel response profiles to ligands, an anion reporter assay was developed to assess the function of channels in a high throughput format. In this assay, cells expressing a YFP reporter whose fluorescence is quenched in the presence of anion are transfected with DNA encoding the channel of interest. Upon exposure to ligand, channels that are activated will flux anion, resulting in a dose-dependent quench of the YFP that can be detected on a plate reader.
(§4) Lenti-X 293T cells (LX293T, Clontech) were maintained in DMEM containing 10% FBS and 1% penicillin/streptomycin (Invitrogen). […] Two days before assay, cells were split at a density of 20,000 cells/well in a 96-well tissue culture plate coated with poly-d lysine (Thermo Scientific). The next day, the cells were transiently transfected with 0.1 μg of DNA per well using standard Fugene protocol (Promega). On the day of assay, cells were washed 2 times in 1× extracellular solution (1×ECS: 140 mM NaCl, 5 mM KCl, 1 mM MgCl2, 2 mM CaCl2, 10 mM HEPES, 10 mM glucose, pH 7.2, mOsms 300). After the last wash, 100 μL of 1×ECS was added to the wells and the plate was incubated at 37° C. for 30 min. While incubating the plate, the drugs were diluted to a 2× concentration in 1×ECS-NaI (same components as 1×ECS except the 140 mM NaCl was replaced by 140 mM NaI). The plates were then read on a Flexstation3 (Molecular Devices). Each well, 8 wells at a time, of the plate is read for 2 min using a Flexstation3 (Molecular Devices) as follows: 1) a baseline YFP fluorescence is read for 17 sec, 2) 100 μL of ligand is added, and 3) the changes in YFP fluorescence are then measured every 1.3 sec for the remaining time.
(§5) FIG. 1 provides heat maps of the percent quench of YFP fluorescence following stimulation by various doses of either acetylcholine or the non-native ligand as indicated in the Figure. A positive fluorescence signal, as indicated by blue shaded cells, indicate that the engineered receptor is activated by the non-native ligand at that concentration. […] Table 12 lists the EC50 values for the indicated double mutants to acetylcholine (Ach) and TC-5619 as determined from the YFP fluorescence plate reader experiment.

[2] = YFP quench plate reader assay, response to TC-5619; settings: LX293T YFP reporter cells; for percent quench of YFP fluorescence, 1 nM brd: 1 nM TC-5619; for percent quench of YFP fluorescence, 3 nM brd: 3 nM TC-5619; for percent quench of YFP fluorescence, 10 nM brd: 10 nM TC-5619; for percent quench of YFP fluorescence, 30 nM brd: 30 nM TC-5619; for percent quench of YFP fluorescence, 100 nM brd: 100 nM TC-5619; for percent quench of YFP fluorescence, 300 nM brd: 300 nM TC-5619; for percent quench of YFP fluorescence, 1 uM brd: 1 uM TC-5619
Description: as §1, §2, §3, §4, §5

[3] = High throughput electrophysiology in HEK293T cells, AZD-0328; settings: HEK293T cells, held at −60 mV
Protocol: To confirm the EC50s determined by plate reader as well as develop a better understanding of maximum current flow, the engineered receptors were subjected to high throughput electrophysiology system, as described below. For HEK293T studies, cDNAs encoding ion channels were cloned into pcDNA3.1 using standard recombination techniques. HEK293T cells from Clontech (Lenti-X™ 293T Cell Line) were cultured in DMEM supplemented with 10% FBS and 1% Pen/Strep to 40-50% confluence using standard cell culture protocols, transfected with ion channel plasmids at a concentration of 18 μg per 15 cm dish using Fugene 6, and grown for an additional 24 hours. Cells were then assayed on a electrophysiological system (IonFluxHT and/or Mercury, Fluxion Biosciences) in which dose-response relationships may be assessed through a microfluidics-based platform for establishing whole cell configurations. Ensemble plates were primed with extracellular buffer (140 mM NaCl, 5 mM KCl, 2 mM CaCl2), 1 mM MgCl2, 10 mM HEPES, and 10 mM glucose, pH 7.2 with NaOH, mOsm 310), intracellular buffer (145 mM CsCl, 2 mM CaCl2, 2 mM MgCl2, 10 mM HEPES, and 10 mM EGTA, pH 7.2 with CsOH, mOsm 305), as adapted from Lynagh and Lynch, and test compounds (stocks prepared fresh) diluted in extracellular buffer. Cells were then released from the plate with Accutase, centrifuged, resuspended in extracellular buffer, and loaded into Ensemble plates. Cells were then subjected to a standard protocol for priming, trapping, breaking, and establishing whole cell configuration, with cells held at −60 mV throughout the recording. After recording baseline, progressive doses of test compounds were applied using the IonFlux software to assess dose response relationships. Data were then analyzed off-line using custom Python scripts to convert data to .csv format, re-plot traces, and apply QC measurements to reject unstable recordings (i.e. thresholding based on access resistance and/or standard deviation in baseline, as well as artifact rejection). Peak currents were then calculated and population data were fit using a 4-parameter logistic equation as described by the Hill Equation. Currents were measured on an automated patch clamp system (Fluxion Biosciences) following 1 second addition of drug and the EC50 values calculated are tabulated below in Table 13.

[4] = YFP quench plate reader assay, response to ABT-126; settings: LX293T YFP reporter cells; for percent quench of YFP fluorescence, 50 nM abt: 50 nM ABT-126; for percent quench of YFP fluorescence, 100 nM abt: 100 nM ABT-126; for percent quench of YFP fluorescence, 300 nM abt: 300 nM ABT-126; for percent quench of YFP fluorescence, 1 uM abt: 1 uM ABT-126
Description: as §1, §2, §3, §4, §5

[5] = YFP quench plate reader assay, response to TC-6987; settings: LX293T YFP reporter cells; for percent quench of YFP fluorescence, 1 uM tc6: 1 uM TC-6987; for percent quench of YFP fluorescence, 10 uM tc6: 10 uM TC-6987; for percent quench of YFP fluorescence, 500 uM tc6: 500 uM TC-6987
Description: as §1, §2, §3, §4, §5

[6] = YFP quench plate reader assay, response to acetylcholine; settings: LX293T YFP reporter cells; for percent quench of YFP fluorescence, 10 uM ach: 10 uM acetylcholine; for percent quench of YFP fluorescence, 100 uM ach: 100 uM acetylcholine; for percent quench of YFP fluorescence, 1 mM ach: 1 mM acetylcholine; for percent quench of YFP fluorescence, 3 mM ach: 3 mM acetylcholine
Description: as §1, §2, §3, §4, §5

[7] = YFP quench plate reader assay, response to RG3487; settings: LX293T YFP reporter cells; for percent quench of YFP fluorescence, 30 nM fac: 30 nM RG3487; for percent quench of YFP fluorescence, 100 nM fac: 100 nM RG3487; for percent quench of YFP fluorescence, 300 nM fac: 300 nM RG3487; for percent quench of YFP fluorescence, 10 uM fac: 10 uM RG3487; for percent quench of YFP fluorescence, 30 uM fac: 30 uM RG3487
Description: as §1, §2, §3, §4, §5

[8] = YFP quench plate reader assay, response to AZD-0328; settings: LX293T YFP reporter cells; for percent quench of YFP fluorescence, 100 nM azd: 100 nM AZD-0328; for percent quench of YFP fluorescence, 300 nM azd: 300 nM AZD-0328; for percent quench of YFP fluorescence, 30 uM azd: 30 uM AZD-0328
Description: as §1, §2, §3, §4, §5

Molecule	percent quench of YFP fluorescence, 100 nM apn [1] [%]	percent quench of YFP fluorescence, 1 uM apn [1] [%]	percent quench of YFP fluorescence, 30 uM apn [1] [%]	percent quench of YFP fluorescence, 1 nM brd [2] [%]	percent quench of YFP fluorescence, 3 nM brd [2] [%]	percent quench of YFP fluorescence, 10 nM brd [2] [%]	percent quench of YFP fluorescence, 30 nM brd [2] [%]	percent quench of YFP fluorescence, 100 nM brd [2] [%]	percent quench of YFP fluorescence, 300 nM brd [2] [%]	percent quench of YFP fluorescence, 1 uM brd [2] [%]	EC50 AZD-0328 [3]	percent quench of YFP fluorescence, 50 nM abt [4] [%]	percent quench of YFP fluorescence, 100 nM abt [4] [%]	percent quench of YFP fluorescence, 300 nM abt [4] [%]	percent quench of YFP fluorescence, 1 uM abt [4] [%]	percent quench of YFP fluorescence, 1 uM tc6 [5] [%]	percent quench of YFP fluorescence, 10 uM tc6 [5] [%]	percent quench of YFP fluorescence, 500 uM tc6 [5] [%]	percent quench of YFP fluorescence, 10 uM ach [6] [%]	percent quench of YFP fluorescence, 100 uM ach [6] [%]	other results
Y115D, S170T in SEQ ID NO: 33: engineered chimeric α7-nAChR/GlyRα1 LGIC receptor: SEQ ID NO: 33 with substitutions Y115D and S170T (protein, synthetic sequence of chimeric LGIC) MRCSPGGVWLALAASLLHVSLQGEFQRKLYKELVKNYNPLERPVANDSQPLTVYFSLSLLQIMDVDEKNQVLTTNIWLQMSWTDHYLQWNVSEYPGVKTVRFPDGQIWKPDILLDNSADERFDATFHTNVLVNSSGHCQYLPPGIFKSSCPMDLKNFPMDVQTCKLKFGTWSYGGWSLDLQMQEADISGYIPNGEWDLVGIPGKRSERFYECCKEPYPDVTFTVTMRRRMGYYLIQMYIPSLLIVILSWISFWINMDAAPARVGLGITTVLTMTTQSSGSRASLPKVSYVKAIDIWMAVCLLFVFSALLEYAAVNFVSRQHKELLRFRRKRRHHKSPMLNLFQEDEAGEGRFNFSAYGMGPACLQAKDGISVKGANNSNTTNPPPAPSKSPEEMRKLFIQRAKKIDKISRIGFPMAFLIFNMFYWIIYKIVRREDVHNQ	−18.17	−15.2	−14	−9.78	12.06	−9.02	16.3	−7.44	−10.93	−4.55	no activity	−11.83	−11.5	−8.01	−9.34	31.9	25.54	21.13	−0.46	−4.93	percent quench of YFP fluorescence, 1 mM ach [6]: −11.18%; percent quench of YFP fluorescence, 3 mM ach [6]: −3.53%; percent quench of YFP fluorescence, 30 nM fac [7]: 38.08%; percent quench of YFP fluorescence, 100 nM fac [7]: −14.37%; percent quench of YFP fluorescence, 300 nM fac [7]: 19.41%; percent quench of YFP fluorescence, 10 uM fac [7]: 67.33%; percent quench of YFP fluorescence, 30 uM fac [7]: 79.67%; percent quench of YFP fluorescence, 100 nM azd [8]: −0.71%; percent quench of YFP fluorescence, 300 nM azd [8]: −1.73%; percent quench of YFP fluorescence, 30 uM azd [8]: 47.39%
Y115D, L131E in SEQ ID NO: 33: engineered chimeric α7-nAChR/GlyRα1 LGIC receptor: SEQ ID NO: 33 with substitutions Y115D and L131E (protein, synthetic sequence of chimeric LGIC) MRCSPGGVWLALAASLLHVSLQGEFQRKLYKELVKNYNPLERPVANDSQPLTVYFSLSLLQIMDVDEKNQVLTTNIWLQMSWTDHYLQWNVSEYPGVKTVRFPDGQIWKPDILLDNSADERFDATFHTNVEVNSSGHCQYLPPGIFKSSCPMDLKNFPMDVQTCKLKFGSWSYGGWSLDLQMQEADISGYIPNGEWDLVGIPGKRSERFYECCKEPYPDVTFTVTMRRRMGYYLIQMYIPSLLIVILSWISFWINMDAAPARVGLGITTVLTMTTQSSGSRASLPKVSYVKAIDIWMAVCLLFVFSALLEYAAVNFVSRQHKELLRFRRKRRHHKSPMLNLFQEDEAGEGRFNFSAYGMGPACLQAKDGISVKGANNSNTTNPPPAPSKSPEEMRKLFIQRAKKIDKISRIGFPMAFLIFNMFYWIIYKIVRREDVHNQ	−5.71	13.03	25.2	−1.52	−5.35	−3.49	2.16	4.18	70.2	43.11	no activity	−1.68	−2.25	−2.37	3.68	36.07	31.35	28.18	15.45	13.77	percent quench of YFP fluorescence, 1 mM ach [6]: 27.42%; percent quench of YFP fluorescence, 3 mM ach [6]: 53.62%; percent quench of YFP fluorescence, 30 nM fac [7]: 45.76%; percent quench of YFP fluorescence, 100 nM fac [7]: 63.92%; percent quench of YFP fluorescence, 300 nM fac [7]: 79.43%; percent quench of YFP fluorescence, 10 uM fac [7]: 80.1%; percent quench of YFP fluorescence, 30 uM fac [7]: 84.91%; percent quench of YFP fluorescence, 100 nM azd [8]: 24.49%; percent quench of YFP fluorescence, 300 nM azd [8]: 45.34%; percent quench of YFP fluorescence, 30 uM azd [8]: 71.21%
